Laboratory results reported in patent EP3964526A1.

Columns and labels:
[1] = target: membrane-bound TNFalpha on stably transfected CHO cells (B-220 cells); experiment: FACS, beads with CHO-TNFα (B220) cells, Sample 2
[2] = target: membrane-bound TNFalpha on stably transfected CHO cells (B-220 cells); experiment: FACS, anti-CD19-APC beads with TNFalpha-transfected CHO cells (Fig. 4b)

% bound beads [1]: 0.9%
# Events (P4, CHO cells bound to anti-CD19 beads) [2]: 6 events
% Parent (P4, CHO cells bound to anti-CD19 beads) [2]: 0.1%
% Total (P4, CHO cells bound to anti-CD19 beads) [2]: 0.1%
Substance: APC labeled unrelated antibody (anti-CD 19) (coated on beads)
